The target in assay [1] is recombinant human AXL, biotinylated (human) (UniProt P30530). Put plainly: SPR.
For assay [2], the target named is T1, AXL in mouse lung tissue (mouse (endogenous in mouse lung tissue), UniProt Q00993 19-888).
T1 sequence: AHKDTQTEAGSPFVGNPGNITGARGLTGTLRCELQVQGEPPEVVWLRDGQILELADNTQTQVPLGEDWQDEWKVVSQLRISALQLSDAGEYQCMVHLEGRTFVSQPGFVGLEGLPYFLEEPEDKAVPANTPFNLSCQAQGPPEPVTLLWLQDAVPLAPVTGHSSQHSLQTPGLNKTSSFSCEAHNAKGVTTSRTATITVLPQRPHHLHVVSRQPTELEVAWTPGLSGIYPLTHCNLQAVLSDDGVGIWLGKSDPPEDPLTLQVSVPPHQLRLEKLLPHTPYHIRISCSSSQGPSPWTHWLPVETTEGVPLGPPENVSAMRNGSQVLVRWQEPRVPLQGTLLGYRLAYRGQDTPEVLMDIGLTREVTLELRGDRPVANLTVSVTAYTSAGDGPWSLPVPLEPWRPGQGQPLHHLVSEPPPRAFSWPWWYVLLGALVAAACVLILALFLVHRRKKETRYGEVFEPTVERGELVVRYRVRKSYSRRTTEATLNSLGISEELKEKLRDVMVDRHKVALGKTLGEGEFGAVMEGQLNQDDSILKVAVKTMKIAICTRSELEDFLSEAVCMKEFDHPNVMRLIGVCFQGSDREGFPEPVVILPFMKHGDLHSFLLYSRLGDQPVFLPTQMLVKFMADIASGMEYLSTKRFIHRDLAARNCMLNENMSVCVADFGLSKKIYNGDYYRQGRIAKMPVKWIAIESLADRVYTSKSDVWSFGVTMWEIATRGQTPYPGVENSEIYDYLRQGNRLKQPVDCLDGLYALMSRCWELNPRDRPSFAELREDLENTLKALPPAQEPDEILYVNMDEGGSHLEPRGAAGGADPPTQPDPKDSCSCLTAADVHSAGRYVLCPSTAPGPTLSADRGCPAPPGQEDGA
Put plainly: FRET or BRET.

Broadly, the Kd is the constant that tells how readily two partners part at equilibrium.

Chain of recombinant human AXL, biotinylated (human) (P30530 26-894): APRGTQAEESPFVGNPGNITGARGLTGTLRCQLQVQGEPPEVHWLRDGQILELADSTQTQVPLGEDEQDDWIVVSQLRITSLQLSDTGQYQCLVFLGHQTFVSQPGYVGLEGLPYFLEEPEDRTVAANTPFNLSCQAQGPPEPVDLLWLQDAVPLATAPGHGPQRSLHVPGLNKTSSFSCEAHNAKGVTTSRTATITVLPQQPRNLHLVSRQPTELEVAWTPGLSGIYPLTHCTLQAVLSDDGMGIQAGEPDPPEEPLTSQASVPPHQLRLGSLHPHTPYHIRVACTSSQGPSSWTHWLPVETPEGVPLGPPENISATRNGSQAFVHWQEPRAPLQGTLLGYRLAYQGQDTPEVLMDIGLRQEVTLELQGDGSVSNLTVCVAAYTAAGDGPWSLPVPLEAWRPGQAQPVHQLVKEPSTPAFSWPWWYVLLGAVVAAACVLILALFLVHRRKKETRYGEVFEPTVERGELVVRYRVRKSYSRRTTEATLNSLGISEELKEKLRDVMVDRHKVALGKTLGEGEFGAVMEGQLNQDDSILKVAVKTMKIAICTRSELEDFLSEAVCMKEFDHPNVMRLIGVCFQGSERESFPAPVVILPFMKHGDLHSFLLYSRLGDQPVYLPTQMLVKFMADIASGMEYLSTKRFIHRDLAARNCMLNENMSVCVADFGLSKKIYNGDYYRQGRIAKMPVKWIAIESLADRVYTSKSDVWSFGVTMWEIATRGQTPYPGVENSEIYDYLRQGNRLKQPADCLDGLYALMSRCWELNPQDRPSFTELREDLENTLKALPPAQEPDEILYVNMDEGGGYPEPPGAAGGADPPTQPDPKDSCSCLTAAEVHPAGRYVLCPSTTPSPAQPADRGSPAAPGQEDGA

Regarding “recombinant human GAS6 (from UniProt Q14393 31-678) (ligand)”, the Kd in assay [1] came out at 0.11 nM.

Take “recombinant human PROS1 (from UniProt P07225 42-676) (ligand)”: the Kd in assay [1] was 52.1 nM.

B1: GAS6 in mouse lung tissue (ligand)
chain: VLLRAREAAQFLRPRQRRAYQVFEEAKQGHLERECVEEVCSKEEAREVFENDPETEYFYPRYQECMRKYGRPEEKNPDFAKCVQNLPDQCTPNPCDKKGTHICQDLMGNFFCVCTDGWGGRLCDKDVNECVQKNGGCSQVCHNKPGSFQCACHSGFSLASDGQTCQDIDECTDSDTCGDARCKNLPGSYSCLCDEGYTYSSKEKTCQDVDECQQDRCEQTCVNSPGSYTCHCDGRGGLKLSPDMDTCEDILPCVPFSMAKSVKSLYLGRMFSGTPVIRLRFKRLQPTRLLAEFDFRTFDPEGVLFFAGGRSDSTWIVLGLRAGRLELQLRYNGVGRITSSGPTINHGMWQTISVEELERNLVIKVNKDAVMKIAVAGELFQLERGLYHLNLTVGGIPFKESELVQPINPRLDGCMRSWNWLNGEDSAIQETVKANTKMQCFSVTERGSFFPGNGFATYRLNYTRTSLDVGTETTWEVKVVARIRPATDTGVLLALVGDDDVVPISVALVDYHSTKKLKKQLVVLAVEDVALALMEIKVCDSQEHTVTVSLREGEATLEVDGTKGQSEVSTAQLQERLDTLKTHLQGSVHTYVGGLPEVSVISAPVTAFYRGCMTLEVNGKILDLDTASYKHSDITSHSCPPVEHATP
Turning to B1, the “FRET efficiency (%Ef) of one coincident region” value in assay [2] was 6.96%.
